# Assay results: article PMC12775068
# Target: MUC2C-N (human MUC2 residues 4256-4803, C4786A; PTS3, VWCN, D4 and VWC1) (human)
# Experiment: cross-linking
substance,measurement,value
"MUC2C-N (human MUC2 residues 4256-4803, C4786A; PTS3, VWCN, D4 and VWC1) (domain or fragment)",stoichiometry N,2
